Data taken from article PMC4838357.

How the values were obtained:
Test in all cases: MITOMI
[1] = biological target: Zif268 R70A (mouse, UniProt P08046 333-421, R401A)
[2] = biological target: Zif268 R14A (mouse, UniProt P08046 333-421, R345A)
[3] = biological target: Zif268 I28A (mouse, UniProt P08046 333-421, I359A)

Measured: binding result

B1: target_268wt (Zif268 consensus) (dsDNA)
DNA 1: GGCCAATTAGCGTGGGCGTTTTCCGGCGGTATGAC
DNA 2: GTCATACCGCCGGAAAACGCCCACGCTAATTGGCC
binds: all assays above
